{"source": "patent US20050222029A1", "about": "(MYRIAD GENETICS, published 2005)", "binders": {"B1": {"name": "Tumor Suppressor (TSG101) 140-270 (other, human, UniProt Q99816 140-270, looked up)", "chain": "PVFSRPISASYPPYQATGPPNTSYMPGMPGGISPYPSGYPPNPSGYPGCPYPPGGPYPATTSSQYPSQPPVTTVGPSRDGTISEDTIRASLISAVSDKLRWRMKEEMDRAQAELNALKRTEEDLKKGHQKL", "notes": "range 140-270; bait (Gal4 DBD fusion)"}, "B2": {"name": "Hypothetical protein FLJ10540 1-110 (other, human, UniProt Q53EZ4 1-110, looked up)", "chain": "MSSRSTKDLIKSKWGSKPSNSKSETTLEKLKGEIAHLKTSVDEITSGKGKLTDKERHRLLEKIRVLEAEKEKNAYQLTEKDKEIQRLRDQLKARYSTTTLLEQLEETTRE", "notes": "range 1-110; prey (Gal4 AD-HA fusion)"}, "B3": {"name": "Hypothetical protein FLJ10540 115-231 (other, human, UniProt Q53EZ4 115-231, looked up)", "chain": "EQVLKALSEEKDVLKQQLSAATSRIAELESKTNTLRLSQTVAPNCFNSSINNIHEMEIQLKDALEKNQQWLVYDQQREVYVKGLLAKIFELEKKTETAAHSLPQQTKKPESEGYLQE", "notes": "prey (Gal4 AD-HA fusion)"}, "B4": {"name": "Survivin (BIRC5) 89-143 (other, human, UniProt O15392 89-142, looked up)", "chain": "VKKQFEELTLGEFLKLDRERAKNKIAKETNNKKKEFEETAKKVRRAIEQLAAMD", "notes": "range 89-143; bait (Gal4 DBD fusion); also called API4"}, "B5": {"name": "tetratricopeptide repeat domain 3 (TPRD) 1058-1189 (other, human, UniProt P53804 1058-1189, looked up)", "chain": "NRNSDSAGPFAVPDHLRQDVEEFEALYDQHSNEYVVRNKKLWDMNPKQKCSTLYDYFSQFLEEHGPLDMSNKMFSAEYEFFPEETRQILEKAGGLKPFLLGCPRFVVIDNCIALKKVASRLKKKRKKKNIKT", "notes": "prey (Gal4 AD-HA fusion)"}, "B6": {"name": "Hypothetical protein FLJ10540 1-231 (other, human, UniProt Q53EZ4 1-231, looked up)", "chain": "MSSRSTKDLIKSKWGSKPSNSKSETTLEKLKGEIAHLKTSVDEITSGKGKLTDKERHRLLEKIRVLEAEKEKNAYQLTEKDKEIQRLRDQLKARYSTTTLLEQLEETTREGERREQVLKALSEEKDVLKQQLSAATSRIAELESKTNTLRLSQTVAPNCFNSSINNIHEMEIQLKDALEKNQQWLVYDQQREVYVKGLLAKIFELEKKTETAAHSLPQQTKKPESEGYLQE", "notes": "prey (Gal4 AD-HA fusion)"}, "B7": {"name": "Tumor Suppressor (TSG101) 147-391 (other, human, UniProt Q99816 147-390, looked up)", "chain": "SASYPPYQATGPPNTSYMPGMPGGISPYPSGYPPNPSGYPGCPYPPGGPYPATTSSQYPSQPPVTTVGPSRDGTISEDTIRASLISAVSDKLRWRMKEEMDRAQAELNALKRTEEDLKKGHQKLEEMVTRLDQEVAEVDKNIELLKKKDEELSSALEKMENQSENNDIDEVIIPTAPLYKQILNLYAEENAIEDTIFYLGEALRRGVIDLDVFLKHVRLLSRKQFQLRALMQKARKTAGLSDLY", "notes": "bait (Gal4 DBD fusion)"}, "B8": {"name": "Hypothetical protein FLJ10540 1-120 (other, human, UniProt Q53EZ4 1-120, looked up)", "chain": "MSSRSTKDLIKSKWGSKPSNSKSETTLEKLKGEIAHLKTSVDEITSGKGKLTDKERHRLLEKIRVLEAEKEKNAYQLTEKDKEIQRLRDQLKARYSTTTLLEQLEETTREGERREQVLKA", "notes": "range 1-120; prey (Gal4 AD-HA fusion)"}, "B9": {"name": "VPS28 protein 10-221 (other, human, UniProt Q9UK41 10-221, looked up)", "chain": "GIGAPGNKPELYEEVKLYKNAREREKYDNMAELFAVVKTMQALEKAYIKDCVSPSEYTAACSRLLVQYKAAFRQVQGSEISSIDEFCRKFRLDCPLAMERIKEDRPITIKDDKGNLNRCIADVVSLFITVMDKLRLEIRAMDEIQPDLRELMETMHRMSHLPPDFEGRQTVSQWLQTLSGMSASDELDDSQVRQMLFDLESAYNAFNRFLHA", "notes": "prey (Gal4 AD-HA fusion); also called vacuolar protein sorting 28"}, "B10": {"name": "Survivin (BIRC5) 3-99 (other, human, UniProt O15392 3-99, looked up)", "chain": "APTLPPAWQPFLKDHRISTFKNWPFLEGCACTPERMAEAGFIHCPTENEPDLAQCFFCFKELEGWEPDDDPIEEHKKHSSGCAFLSVKKQFEELTLG", "notes": "range 3-99; bait (Gal4 DBD fusion); also called API4"}, "B11": {"name": "VPS28 protein 27-221 (other, human, UniProt Q9UK41 27-221, looked up)", "chain": "YKNAREREKYDNMAELFAVVKTMQALEKAYIKDCVSPSEYTAACSRLLVQYKAAFRQVQGSEISSIDEFCRKFRLDCPLAMERIKEDRPITIKDDKGNLNRCIADVVSLFITVMDKLRLEIRAMDEIQPDLRELMETMHRMSHLPPDFEGRQTVSQWLQTLSGMSASDELDDSQVRQMLFDLESAYNAFNRFLHA", "notes": "as for B9"}, "B12": {"name": "farnesyltransferase, CAAX box, alpha (FNTA) 189-328 (enzyme)", "chain": "not shown", "notes": "prey (Gal4 AD-HA fusion)"}, "B13": {"name": "Hypothetical protein FLJ10540 1-115 (other, human, UniProt Q53EZ4 1-115, looked up)", "chain": "MSSRSTKDLIKSKWGSKPSNSKSETTLEKLKGEIAHLKTSVDEITSGKGKLTDKERHRLLEKIRVLEAEKEKNAYQLTEKDKEIQRLRDQLKARYSTTTLLEQLEETTREGERRE", "notes": "prey (Gal4 AD-HA fusion)"}, "B14": {"name": "Actinin (ACTN1) 719-892 (other, human, UniProt P12814 719-892, looked up)", "chain": "QLLTTIARTINEVENQILTRDAKGISQEQMNEFRASFNHFDRDHSGTLGPEEFKACLISLGYDIGNDPQGEAEFARIMSIVDPNRLGVVTFQAFIDFMSRETADTDTADQVMASFKILAGDKNYITMDELRRELPPDQAEYCIARMAPYTGPDSVPGALDYMSFSTALYGESDL", "notes": "prey (Gal4 AD-HA fusion)"}, "B15": {"name": "Hypothetical protein FLJ10540 1-74 (other, human, UniProt Q53EZ4 1-74, looked up)", "chain": "MSSRSTKDLIKSKWGSKPSNSKSETTLEKLKGEIAHLKTSVDEITSGKGKLTDKERHRLLEKIRVLEAEKEKNA", "notes": "range 1-74; prey (Gal4 AD-HA fusion)"}, "B16": {"name": "Hypothetical protein FLJ10540 1-117 (other, human, UniProt Q53EZ4 1-117, looked up)", "chain": "MSSRSTKDLIKSKWGSKPSNSKSETTLEKLKGEIAHLKTSVDEITSGKGKLTDKERHRLLEKIRVLEAEKEKNAYQLTEKDKEIQRLRDQLKARYSTTTLLEQLEETTREGERREQV", "notes": "prey (Gal4 AD-HA fusion)"}}, "experiment_in_all_cases": "yeast two-hybrid", "key": {"[1]": {"target": "T1, Hypothetical protein FLJ10540 1-140 (human, UniProt Q53EZ4 1-140)", "T1 construct": "range 1-140; prey (Gal4 AD-HA fusion)", "T1 sequence (looked up)": "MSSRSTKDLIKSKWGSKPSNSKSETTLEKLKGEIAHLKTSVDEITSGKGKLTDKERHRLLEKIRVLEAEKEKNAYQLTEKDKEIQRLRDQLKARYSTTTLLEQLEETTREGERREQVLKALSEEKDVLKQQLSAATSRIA"}, "[2]": {"target": "T2, Hypothetical protein FLJ10540 2-132 (human, UniProt Q53EZ4 2-132)", "T2 construct": "prey (Gal4 AD-HA fusion)", "T2 sequence (looked up)": "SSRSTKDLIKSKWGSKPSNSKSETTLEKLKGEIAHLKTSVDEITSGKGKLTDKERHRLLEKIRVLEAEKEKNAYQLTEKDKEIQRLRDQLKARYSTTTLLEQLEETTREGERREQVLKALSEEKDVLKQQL"}, "[3]": {"target": "T3, Tumor Suppressor (TSG101) 50-391 (human, UniProt Q99816 50-390)", "T3 construct": "range 50-391; bait (Gal4 DBD fusion)", "T3 sequence (looked up)": "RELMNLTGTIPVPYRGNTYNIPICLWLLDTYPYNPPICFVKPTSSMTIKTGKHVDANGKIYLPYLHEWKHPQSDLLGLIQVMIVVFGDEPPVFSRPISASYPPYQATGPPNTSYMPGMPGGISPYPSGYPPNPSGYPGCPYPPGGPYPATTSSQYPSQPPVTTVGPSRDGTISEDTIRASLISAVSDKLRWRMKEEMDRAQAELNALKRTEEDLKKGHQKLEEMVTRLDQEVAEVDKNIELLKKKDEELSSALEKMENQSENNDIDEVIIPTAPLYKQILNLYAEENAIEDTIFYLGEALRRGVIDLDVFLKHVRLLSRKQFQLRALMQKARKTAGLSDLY"}, "[4]": {"target": "T4, Cytoplasmic dynein light chain 1 (HDLC1) 1-90 (human, UniProt P63167 1-89)", "T4 construct": "range 1-90; prey (Gal4 AD-HA fusion)", "T4 sequence (P63167 whole entry, the tested form may be a part)": "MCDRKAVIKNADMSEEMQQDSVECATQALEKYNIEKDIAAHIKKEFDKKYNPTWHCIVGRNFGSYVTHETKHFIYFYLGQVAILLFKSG"}, "[5]": {"target": "T5, v-akt murine thymoma viral oncogene homolog 1 (AKT1) 1-150 (human, UniProt P31749 1-150)", "T5 construct": "range 1-150; bait (Gal4 DBD fusion)", "T5 sequence (P31749 1-150 limits assumed)": "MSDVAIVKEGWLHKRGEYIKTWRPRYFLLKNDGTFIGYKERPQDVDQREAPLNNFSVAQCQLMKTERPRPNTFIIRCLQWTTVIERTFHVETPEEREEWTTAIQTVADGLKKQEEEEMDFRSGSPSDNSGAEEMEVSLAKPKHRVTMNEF"}, "[6]": {"target": "T6, v-akt murine thymoma viral oncogene homolog 2 (AKT2) 1-152 (human, UniProt P31751 1-152)", "T6 construct": "bait (Gal4 DBD fusion)", "T6 sequence (looked up)": "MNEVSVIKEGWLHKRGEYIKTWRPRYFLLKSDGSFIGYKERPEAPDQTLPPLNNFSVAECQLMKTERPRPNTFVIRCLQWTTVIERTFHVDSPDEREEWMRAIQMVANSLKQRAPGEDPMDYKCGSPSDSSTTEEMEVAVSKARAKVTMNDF"}, "[7]": {"target": "T7, Golgi autoantigen (Golgin-84) 198-501 (human, UniProt Q8TBA6 198-501)", "T7 construct": "prey (Gal4 AD-HA fusion)", "T7 sequence (looked up)": "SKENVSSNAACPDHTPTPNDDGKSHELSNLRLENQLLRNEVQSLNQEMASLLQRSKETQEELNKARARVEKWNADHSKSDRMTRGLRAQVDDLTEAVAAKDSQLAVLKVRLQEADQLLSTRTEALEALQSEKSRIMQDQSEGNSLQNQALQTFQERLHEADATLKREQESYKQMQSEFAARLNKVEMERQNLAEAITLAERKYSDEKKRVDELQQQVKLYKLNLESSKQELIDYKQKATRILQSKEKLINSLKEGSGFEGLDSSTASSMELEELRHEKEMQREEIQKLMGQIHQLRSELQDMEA"}, "[8]": {"target": "B1"}, "[9]": {"target": "B7"}, "[10]": {"target": "T8, DNA helicase II, ATP-dependent, 70 kD subunit (KU70) 131-403 (table prints 1131-4404) (human, UniProt P12956 131-403)", "T8 construct": "prey (Gal4 AD-HA fusion)", "T8 sequence (P12956 131-403 limits assumed)": "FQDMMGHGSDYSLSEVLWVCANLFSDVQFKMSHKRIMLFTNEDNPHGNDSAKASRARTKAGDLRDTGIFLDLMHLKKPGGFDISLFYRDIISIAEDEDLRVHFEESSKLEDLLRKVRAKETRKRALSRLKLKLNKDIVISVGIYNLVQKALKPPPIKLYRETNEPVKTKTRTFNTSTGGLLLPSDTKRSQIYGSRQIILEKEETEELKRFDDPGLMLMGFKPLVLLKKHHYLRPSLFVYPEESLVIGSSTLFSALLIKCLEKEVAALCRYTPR"}, "[11]": {"target": "T9, Tumor Suppressor (TSG101) 1-274 (human, UniProt Q99816 1-274)", "T9 construct": "range 1-274; bait (Gal4 DBD fusion)", "T9 sequence (looked up)": "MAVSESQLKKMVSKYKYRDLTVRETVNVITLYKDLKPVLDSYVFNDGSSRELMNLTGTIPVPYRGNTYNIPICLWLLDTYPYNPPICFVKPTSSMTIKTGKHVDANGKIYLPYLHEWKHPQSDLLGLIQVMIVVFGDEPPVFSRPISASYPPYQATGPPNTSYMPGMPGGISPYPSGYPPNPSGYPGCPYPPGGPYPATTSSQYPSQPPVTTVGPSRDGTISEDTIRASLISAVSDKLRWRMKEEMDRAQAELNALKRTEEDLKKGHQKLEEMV"}}}
{"binder": "B1", "values": [{"measurement": "binding result", "setting": "[1]", "result": "binds"}, {"measurement": "binding result", "setting": "[2]", "result": "binds"}]}
{"binder": "B2", "values": [{"measurement": "binding result", "setting": "[3]", "result": "binds"}]}
{"binder": "B3", "values": [{"measurement": "binding result", "setting": "[3]", "result": "binds"}]}
{"binder": "B4", "values": [{"measurement": "binding result", "setting": "[4]", "result": "binds"}]}
{"binder": "B5", "values": [{"measurement": "binding result", "setting": "[5]", "result": "binds"}, {"measurement": "binding result", "setting": "[6]", "result": "binds"}]}
{"binder": "B6", "values": [{"measurement": "binding result", "setting": "[3]", "result": "binds"}]}
{"binder": "B7", "values": [{"measurement": "binding result", "setting": "[7]", "result": "binds"}]}
{"binder": "B8", "values": [{"measurement": "binding result", "setting": "[8]", "result": "binds"}]}
{"binder": "B9", "values": [{"measurement": "binding result", "setting": "[9]", "result": "binds"}]}
{"binder": "B10", "values": [{"measurement": "binding result", "setting": "[10]", "result": "binds"}]}
{"binder": "B11", "values": [{"measurement": "binding result", "setting": "[9]", "result": "binds"}]}
{"binder": "B12", "values": [{"measurement": "binding result", "setting": "[5]", "result": "binds"}]}
{"binder": "B13", "values": [{"measurement": "binding result", "setting": "[8]", "result": "binds"}]}
{"binder": "B14", "values": [{"measurement": "binding result", "setting": "[11]", "result": "binds"}]}
{"binder": "B15", "values": [{"measurement": "binding result", "setting": "[8]", "result": "binds"}]}
{"binder": "B16", "values": [{"measurement": "binding result", "setting": "[3]", "result": "binds"}]}
